Measurements reported in patent publication US20140302035A1.
Each block holds one binder with its values, some of them ahead of it.

Tests used:
c-Met (human) = c-Met (human) (UniProt P08581); test: cell-based or functional assay
c-Met (human), P08581 = test: cell-based or functional assay
Sequence of c-Met (human), P08581 (P08581 25-1390): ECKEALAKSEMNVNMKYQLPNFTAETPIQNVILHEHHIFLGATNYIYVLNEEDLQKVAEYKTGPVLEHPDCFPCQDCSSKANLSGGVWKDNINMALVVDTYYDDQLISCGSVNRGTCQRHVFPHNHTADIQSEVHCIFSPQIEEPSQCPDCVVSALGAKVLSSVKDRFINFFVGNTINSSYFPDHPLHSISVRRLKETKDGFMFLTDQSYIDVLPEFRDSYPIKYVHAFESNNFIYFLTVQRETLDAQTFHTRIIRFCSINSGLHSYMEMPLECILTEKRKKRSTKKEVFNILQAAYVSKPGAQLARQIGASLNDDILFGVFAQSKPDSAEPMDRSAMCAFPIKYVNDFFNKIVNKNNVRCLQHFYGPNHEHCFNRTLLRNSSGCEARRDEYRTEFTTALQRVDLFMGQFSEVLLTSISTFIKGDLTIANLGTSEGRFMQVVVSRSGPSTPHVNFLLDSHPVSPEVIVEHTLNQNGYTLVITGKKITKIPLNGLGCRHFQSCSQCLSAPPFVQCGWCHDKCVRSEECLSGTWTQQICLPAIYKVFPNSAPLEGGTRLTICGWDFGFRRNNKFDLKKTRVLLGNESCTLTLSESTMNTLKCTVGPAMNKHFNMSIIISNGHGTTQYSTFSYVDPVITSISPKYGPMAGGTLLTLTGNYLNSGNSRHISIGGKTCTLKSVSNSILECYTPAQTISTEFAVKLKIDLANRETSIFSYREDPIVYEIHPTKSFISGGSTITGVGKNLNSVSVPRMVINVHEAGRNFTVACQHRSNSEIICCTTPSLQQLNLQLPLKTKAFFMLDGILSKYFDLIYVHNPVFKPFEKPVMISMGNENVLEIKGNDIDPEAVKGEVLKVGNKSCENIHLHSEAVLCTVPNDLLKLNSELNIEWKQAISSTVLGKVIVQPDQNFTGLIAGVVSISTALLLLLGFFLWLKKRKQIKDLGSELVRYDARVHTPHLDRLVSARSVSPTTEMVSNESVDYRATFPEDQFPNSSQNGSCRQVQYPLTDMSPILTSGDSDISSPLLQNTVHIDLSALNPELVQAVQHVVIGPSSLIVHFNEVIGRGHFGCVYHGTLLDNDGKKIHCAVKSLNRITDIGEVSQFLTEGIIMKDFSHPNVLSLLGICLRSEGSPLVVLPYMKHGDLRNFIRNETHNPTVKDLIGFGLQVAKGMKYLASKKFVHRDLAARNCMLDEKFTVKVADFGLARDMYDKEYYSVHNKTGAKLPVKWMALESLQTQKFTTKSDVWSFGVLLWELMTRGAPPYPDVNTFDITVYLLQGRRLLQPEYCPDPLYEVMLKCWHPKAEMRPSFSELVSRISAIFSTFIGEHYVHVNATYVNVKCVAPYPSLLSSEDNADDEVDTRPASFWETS

Sequence of c-Met (human) (P08581 25-1390): as above

c-Met degradation (total c-Met ELISA, 24 h), A549 cells (c-Met (human)): < 20% | reduction of c-Met expression (total c-Met ELISA, 24 h), NCI-H2170 cells (c-Met (human)): 30%
B1: OA-5D5 (antibody, part only; not given: constant regions and Fc knob chain, V domains shown, not shown: another chain or arm of the molecule; a dimerising Fc or GST)
VH: EVQLVESGGGLVQPGGSLRLSCAASGYTFTSYWLHWVRQAPGKGLEWVGMIDPSNSDTRFNPNFKDRFTISADTSKNTAYLQMNSLRAEDTAVYYCATYRSYVTPLDYWGQGTLVTVSS
VL: DIQMTQSPSSLSASVGDRVTITCKSSQSLLYTSSQKNYLAWYQQKPGKAPKLLIYWASTRESGVPSRFSGSGSGTDFTLTISSLQPEDFATYYCQQYYAYPWTFGQGTKVEIK

c-Met degradation (total c-Met ELISA, 24 h), A549 cells (c-Met (human), P08581): < 20% | reduction of c-Met expression (total c-Met ELISA, 24 h), NCI-H2170 cells (c-Met (human), P08581): 65%
B2: Ab#5 (bispecific antibody, human IgG1, kappa)
heavy: QLQLQESGPGLVKPSETLSLTCTVSGGSISSSVYYWSWIRQPPGKGLEWIGVIYPSGNTYYSPSLKSRVTISVDTSKNQFSLKLSSVTAADTAVYYCARTIYDLFDIWGQGTMVTVSSASTKGPSVFPLAPSSKSTSGGTAALGCLVKDYFPEPVTVSWNSGALTSGVHTFPAVLQSSGLYSLSSVVTVPSSSLGTQTYICNVNHKPSNTKVDKKVEPKSCDKTHTCPSCPAPEFLGGPSVFLFPPKPKDTLMISRTPEVTCVVVDVSQEDPEVQFNWYVDGVEVHNAKTKPREEQFNSKYRVVSVLTVLHQDWLNGKEYKCKVSNKGLPSSIEKTISKAKGQPREPQVYTLPPSREEMTKNQVSLSCAVKGFYPSDIAVEWESNGQPENNYKTTPPVLDSDGSFFLVSKLTVDKSRWQQGNVFSCSVMHEALHNHYTQKSLSLSKSCDKTGGGGSGGGGSGGGGSGGGGSGGGGSGGGGSGGGGSGGGGSCPSCPAPEFLGGPSVFLFPPKPKDTLMISRTPEVTCVVVDVSQEDPEVQFNWYVDGVEVHNAKTKPREEQFNSDYRVVSVLTVLHQDWLNGKEYKCKVSNKGLPSSIEKTISKAKGQPREPQVYTLPPSREEMTKNQVSLWCLVKGFYPSDIAVEWESNGQPENNYKTTPPVLDSDGSFFLYSKLTVDKSRWQQGNVFSCSVMHEALHNHYTQKSLSLSGECGGGGSGGGGSDIVMTQSPLSLPVTPGEPASISCRSTKSLLHSNGITYLYWYLQKPGQSPQLLIYQMSNLASGVPDRFSSSGSGTDFTLKISRVEAEDEGVYYCAQNLEIPRTFGGGTKLEIKRTGGGGSGGGGSGGGGSGGGGSQVQLVQSGAEVKKPGESVKISCKASGYTFTNYGMNWVRQAPGQGLKWMGWINTYTGESTYADDFKGRFAFSLDTSASTAYLQLSSLRSEDTAVYFCARFAIKGDYWGQGTLVTVSS
light: DIQMTQSPSSVSASVGDRVTITCRASQGISSWLAWYQQKPGKAPKLLIYAASSLQSGVPSRFSGSGSGTDFTLTISSLQPEDFATYYCLQANSFPPTFGGGTKVEIKRTVAAPSVFIFPPSDEQLKSGTASVVCLLNNFYPREAKVQWKVDNALQSGNSQESVTEQDSKDSTYSLSSTLTLSKADYEKHKVYACEVTHQGLSSPVTKSFNRGEC
